Measured values reported in US20150368353A1.

Target: podoplanin on human brain tumor cells (glioblastoma and medulloblastoma cells and xenografts) (human) (UniProt Q86YL7)
Test: cell-based or functional assay

dsNZ-1-PE38KDEL immunotoxin (scFv)
IC50 of cytotoxicity (inhibition of protein synthesis, 3H-leucine incorporation): 0.5 to 6.9 ng/mL
